This is an account of results in paper PMC10960864, “Bidirectional ATP-driven transport of cobalamin by the mycobacterial ABC transporter BacA” (Nature Communications, 2024).

This data set concerns Nc1ncnc2c1ncn2[C@@H]1O[C@H](COP(=O)(O)OP(=O)(O)OP(=O)(O)O)[C@@H](O)[C@H]1O. As to the kind of experiment: purified protein. Particulars: import direction, Mg-ATP varied, 65 µM cyanocobalamin, pH 7.5, 30 °C, 1 mM DTT.

Turning to BacAMm (Mycobacterium marinum M), the Michaelis constant (Km) was found to be 250 µM.

A word on the Km: it is the substrate concentration at which the rate is half of its maximum.
